Measured values taken from US20230280350A1 (NORDIC BIOSCIENCE A S, published 2023).
No end group written: not given here. *: point of attachment. Biotin = O=C1N[C@H]2[C@H](CS[C@H]2CCCCC(=O)*)N1

What was measured:
[1] = biological target: T1, Elongated peptide PMKTMKGPFGG; assay: competitive ELISA, peptide against coated Biotin-K-PMKTMKGPFG
T1 construct: Selection peptide with one extra glycine at the C-terminus
T1 peptide: PMKTMKGPFGG
From the text: (§1) The PRO-C16 amino acid sequence 1595′-[…] (SEQ ID NO: 1) located at the C-terminal was used to generate an antibody specific for the C-terminal of col-16. It was additionally used to design the selection peptide ([…]; SEQ ID NO: 1) (Table 1). The sequence was BLASTed for homology to other human proteins and species using the NPS@: network protein sequence analysis with the Uniprot/Swiss-Prot database (20). The amino acid sequence is unique to human col-16. A biotinylated peptide (Biotin-K-[…]) was used to coat the streptavidin-coated plates applied in the ELISA. An elongated peptide ([…]; SEQ ID NO: 2), a truncated peptide ([…]; SEQ ID NO: 3), a nonsense peptide ([…]; SEQ ID NO: 5) and a nonsense biotinylated peptide (Biotin-[…]; SEQ ID NO: 6) were included to test the specificity of the antibody.
(§2) The PRO-C16 competitive ELISA procedure was as follows; a 96-well streptavidin-coated microtiter plate was coated with 100 µl of biotinylated peptide (Biotin-K-[…]; SEQ ID NO: 4) dissolved in assay buffer (50 mM PBS-BTB, 4 g/l NaCl, pH 7.4) (final concentration of […]). The plate was incubated for 30 minutes at 20° C. with shaking (300 rpm) and then washed five times in washing buffer (20 mM TRIS, 50 mM NaCl, pH 7.2). A volume of 20 µl of sample/control/selection peptide ([…]; SEQ ID NO: 1) was added followed by immediately addition of 100 µl of monoclonal antibody diluted in assay buffer (final concentration of 62.5 ng/ml). The plate was incubated for 1 hour at 20° C. with shaking followed by five washes in washing buffer. Then, 100 µl of goat anti-mouse HRP-conjugated IgG antibody (Thermo Scientific, Waltham, MA, USA; cat. #31437) diluted in assay buffer (final concentration of 130 ng/ml) was added to each well. […] To stop the reaction of TMB, 100 µl of 1% H₂SO₄ was added and the plate was analyzed in a VersaMax ELISA microplate reader at 450 nm with 650 nm as reference. A standard curve was plotted using a 4-parametric mathematical fit model and data were analyzed using the Softmax Pro v. […]

[2] = biological target: T2, Truncated peptide PMKTMKGPF; assay: competitive ELISA, peptide against coated Biotin-K-…
T2 construct: Selection peptide without its C-terminal glycine
T2 peptide: PMKTMKGPF
From the text: as §1, §2

[3] = biological target: T3, Nonsense peptide VPKDLPPDTT (not fully specified); assay: as above
T3 construct: Control peptide
T3 peptide: VPKDLPPDTT
From the text: as §1, §2

[4] = biological target: T4, Nonsense biotinylated peptide Biotin-VPKDLPPDTT; assay: ELISA with the nonsense biotinylated peptide on streptavidin plates
T4 construct: Control coating peptide
T4 peptide: Biotin-VPKDLPPDTT

Measured: binding result

B1: monoclonal antibody of the PRO-C16 assay, raised against KLH-CGG-… (antibody, mouse IgG2b, kappa, V domains shown)
VH: EVQLQQSGAELVRSGASVKLSCTASGFNIKDYYIHWVKQRPEQGLEWIGWIDHDNGDTEYDPKFQGKATLTADTSSNTAYLQLSSLTSEDTAVYYCNAKGPRYGYEEDWFAYWGQGTLVTVST
VL: DVLMTQTPLSLPVSLGDQASISCRSSQSIVHNNGNTYLEWFLQKPGQSPKLLIYKVSNRFSGVPDRFSGSGSGTDFTLRISRVEADDLGVYYCFQGSHVPRTFGGGTKLEIKR
notes: also called PRO-C16 antibody; C16-C
no binding: all assays above
